# ± gives the uncertainty stated by the source.
# B1: Homeobox protein cut-like 1, residues 548 to 629; numbered along this chain, P39880 (parent)
# chain: GEEMDTAEIARQVKEQLIKHNIGQRIFGHYVLGLSQGSVSEILARPKPWNKLTVRGKEPFHKMKQFLSDEQNILALRSIQGR
# Variants of: B1
# Assay: abundance fitness (aPCA) (normalised: wild type 0, dead -1); higher = more abundant; growth selection in yeast, the domain comes from the species named
# Details: Homo sapiens
row,Variant,abundance fitness
1,GEEMDTAEIARQVKEQLIKHNIGQRIFGHYVLGLSQGSVSEILARPKPWDKLTVRGKEPFHKMKQFLSDEQNILALRSIQGR [N50D],-0.103 ± 0.12
2,GEEMDTAEIARQVKEQLIKHNIGQRIFGHYVLGLSQGSVSEILARPKPWVKLTVRGKEPFHKMKQFLSDEQNILALRSIQGR [N50V],-0.309 ± 0.088
3,GEEMDTAEIARQVKEQLIKHNIGQRIFGHYVLGLSQGSVSEILARPKPWSKLTVRGKEPFHKMKQFLSDEQNILALRSIQGR [N50S],0.073 ± 0.07
4,GEEMDTAEIARQVKEQLIKHNIGQRIFGHYVLGLSQGSVSEILARPKPWLKLTVRGKEPFHKMKQFLSDEQNILALRSIQGR [N50L],-0.424 ± 0.092
5,GEEMDTAEIARQVKEQLIKHNIGQRIFGHYVLGLSQGSVSEILARPKPWEKLTVRGKEPFHKMKQFLSDEQNILALRSIQGR [N50E],-0.071 ± 0.2
6,GEEMDTAEIARQVKEQLIKHNIGQRIFGHYVLGLSQGSVSEILARPKHWNKLTVRGKEPFHKMKQFLSDEQNILALRSIQGR [P48H],-0.16 ± 0.061
7,GEEMDTAEIARQVKEQLIKHNIGQRIFGHYVLGLSQGSVSEILARPKGWNKLTVRGKEPFHKMKQFLSDEQNILALRSIQGR [P48G],-0.539 ± 0.028
8,GEEMDTAEIARQVKEQLIKHNIGQRIFGHYVLGLSQGSVSEILARPKAWNKLTVRGKEPFHKMKQFLSDEQNILALRSIQGR [P48A],-0.119 ± 0.028
9,GEEMDTAEIARQVKEQLIKHNIGQRIFGHYVLGLSQGSVSEILARPKRWNKLTVRGKEPFHKMKQFLSDEQNILALRSIQGR [P48R],-0.475 ± 0.029
10,GEEMDTAEIARQVKEQLIKHNIGQRIFGHYVLGLSQGSVSEILARPKSWNKLTVRGKEPFHKMKQFLSDEQNILALRSIQGR [P48S],-0.168 ± 0.036
11,GEEMDTAEIARQVKEQLIKHNIGQRIFGHYVLGLSQGSVSEILARPKCWNKLTVRGKEPFHKMKQFLSDEQNILALRSIQGR [P48C],-0.268 ± 0.055
12,GEEMDTAEIARQVKEQLIKHNIGQRIFGHYVLGLSQGSVSEILARPKIWNKLTVRGKEPFHKMKQFLSDEQNILALRSIQGR [P48I],-0.438 ± 0.1
13,GEEMDTAEIARQVKEQLIKHNIGQRIFGHYVLGLSQGSVSEILARPKVWNKLTVRGKEPFHKMKQFLSDEQNILALRSIQGR [P48V],-0.374 ± 0.032
14,GEEMDTAEIARQVKEQLIKHNIGQRIFGHYVLGLSQGSVSEILARPKEWNKLTVRGKEPFHKMKQFLSDEQNILALRSIQGR [P48E],-0.126 ± 0.031
15,GEEMDTAEIARQVKEQLIKHNIGQRIFGHYVLGLSQGSVSEILARPKQWNKLTVRGKEPFHKMKQFLSDEQNILALRSIQGR [P48Q],-0.247 ± 0.038
16,GEEMDTAEIARQVKEQLIKHNIGQRIFGHYVLGLSQGSVSEILARPKDWNKLTVRGKEPFHKMKQFLSDEQNILALRSIQGR [P48D],-0.267 ± 0.058
17,GEEMDTAEIARQVKEQLIKHNIGQRIFGHYVLGLSQGSVSEILARPKMWNKLTVRGKEPFHKMKQFLSDEQNILALRSIQGR [P48M],-0.27 ± 0.043

row,Variant,abundance fitness
1,GEEMDTAEIARQVKEQLIKHNIGQRIFGHYVLGLSQGSVSEILARPKFWNKLTVRGKEPFHKMKQFLSDEQNILALRSIQGR [P48F],-0.513 ± 0.11
2,GEEMDTAEIARQVKEQLIKHNIGQRIFGHYVLGLSQGSVSEILARPKWWNKLTVRGKEPFHKMKQFLSDEQNILALRSIQGR [P48W],-0.325 ± 0.033
3,GEEMDTAEIARQVKEQLIKHNIGQRIFGHYVLGLSQGSVSEILARPKKWNKLTVRGKEPFHKMKQFLSDEQNILALRSIQGR [P48K],-0.452 ± 0.049
4,GEEMDTAEIARQVKEQLIKHNIGQRIFGHYVLGLSQGSVSEILARPKNWNKLTVRGKEPFHKMKQFLSDEQNILALRSIQGR [P48N],-0.446 ± 0.083
5,GEEMDTAEIARQVKEQLIKHNIGQRIFGHYVLGLSQGSVSEILARPKYWNKLTVRGKEPFHKMKQFLSDEQNILALRSIQGR [P48Y],-0.78 ± 0.12
6,GEEMDTAEIARQVKEQLIKHNIGQRIFGHYVLGLSQGSVSEILARPKPWNGLTVRGKEPFHKMKQFLSDEQNILALRSIQGR [K51G],-0.198 ± 0.05
7,GEEMDTAEIARQVKEQLIKHNIGQRIFGHYVLGLSQGSVSEILARPKPWNRLTVRGKEPFHKMKQFLSDEQNILALRSIQGR [K51R],-0.047 ± 0.044
8,GEEMDTAEIARQVKEQLIKHNIGQRIFGHYVLGLSQGSVSEILARPKPWNHLTVRGKEPFHKMKQFLSDEQNILALRSIQGR [K51H],-0.075 ± 0.12
9,GEEMDTAEIARQVKEQLIKHNIGQRIFGHYVLGLSQGSVSEILARPKPWNLLTVRGKEPFHKMKQFLSDEQNILALRSIQGR [K51L],0.011 ± 0.058
10,GEEMDTAEIARQVKEQLIKHNIGQRIFGHYVLGLSQGSVSEILARPKPWNMLTVRGKEPFHKMKQFLSDEQNILALRSIQGR [K51M],-0.011 ± 0.066
11,GEEMDTAEIARQVKEQLIKHNIGQRIFGHYVLGLSQGSVSEILARPKPWNFLTVRGKEPFHKMKQFLSDEQNILALRSIQGR [K51F],-0.098 ± 0.097
12,GEEMDTAEIARQVKEQLIKHNIGQRIFGHYVLGLSQGSVSEILARPKPWNNLTVRGKEPFHKMKQFLSDEQNILALRSIQGR [K51N],0.012 ± 0.07
13,GEEMDTAEIARQVKEQLIKHNIGQRIFGHYVLGLSQGSVSEILARPKPWNPLTVRGKEPFHKMKQFLSDEQNILALRSIQGR [K51P],-0.912 ± 0.27
14,GEEMDTAEIARQVKEQLIKHNIGQRIFGHYVLGLSQGSVSEILARPKPWNILTVRGKEPFHKMKQFLSDEQNILALRSIQGR [K51I],-0.008 ± 0.12
15,GEEMDTAEIARQVKEQLIKHNIGQRIFGHYVLGLSQGSVSEILARPKPWNELTVRGKEPFHKMKQFLSDEQNILALRSIQGR [K51E],0.063 ± 0.063
16,GEEMDTAEIARQVKEQLIKHNIGQRIFGHYVLGLSQGSVSEILARPKPWNQLTVRGKEPFHKMKQFLSDEQNILALRSIQGR [K51Q],0.122 ± 0.08
17,GEEMDTAEIARQVKEQLIKHNIGQRIFGHYVLGLSQGSVSEILARPKPWNDLTVRGKEPFHKMKQFLSDEQNILALRSIQGR [K51D],0.054 ± 0.082

# Reference: the Human Domainome abundance scans (Beltran et al. 2025)
